Patent US20200024330A1

Legend:
Test in all cases: cell-based or functional assay
[1] = target: HIV-1 Env of isolate MGRM-Chronic-B-017 (HIV-1)
[2] = target: HIV-1 Env of isolate MGRM-G-027 (HIV-1)
[3] = target: HIV-1 Env of isolate MGRM-Chronic-B-023 (HIV-1)
[4] = target: HIV-1 Env of isolate MGRM-G-013 (HIV-1)
[5] = target: HIV-1 92TH021 envelope glycoprotein (Env) on pseudovirus (HIV-1)
[6] = target: HIV-1 Env of isolate MGRM-G-009 (HIV-1)
[7] = target: HIV-1 92UG024 envelope glycoprotein (Env) on pseudovirus (HIV-1)
[8] = target: HIV-1 Env of isolate MGRM-G-019 (HIV-1)
[9] = target: HIV-1 NL43 envelope glycoprotein (Env) on pseudovirus (HIV-1)
[10] = target: aMLV envelope (negative control pseudovirus)
[11] = target: HIV-1 Env of isolate MGRM-Chronic-B-012 (HIV-1)
[12] = target: HIV-1 Env of isolate MGRM-D-026 (subtype D), on pseudovirus (HIV-1)
[13] = target: HIV-1 Env of isolate MGRM-G-001 (HIV-1)
[14] = target: HIV-1 Env of isolate MGRM-Chronic-B-024 (HIV-1)
[15] = target: HIV-1 Env of isolate MGRM-Chronic-B-020 (HIV-1)
[16] = target: HIV-1 Env of isolate MGRM-Chronic-B-011 (HIV-1)
[17] = target: HIV-1 Env of isolate MGRM-G-016 (HIV-1)
[18] = target: HIV-1 Env of isolate MGRM-G-011 (HIV-1)
[19] = target: HIV-1 Env of isolate MGRM-G-004 (HIV-1)
[20] = target: HIV-1 Env of isolate MGRM-G-006 (HIV-1)
[21] = target: HIV-1 Env of isolate MGRM-Chronic-B-018 (HIV-1)
[22] = target: HIV-1 Env of isolate MGRM-G-017 (HIV-1)
[23] = target: HIV-1 Env of isolate MGRM-G-015 (HIV-1)
[24] = target: HIV-1 92BR020 envelope glycoprotein (Env) on pseudovirus (HIV-1)
[25] = target: HIV-1 Env of isolate MGRM-G-014 (HIV-1)
[26] = target: HIV-1 92RW020 envelope glycoprotein (Env) on pseudovirus (HIV-1)
[27] = target: HIV-1 Env of isolate JRFL (HIV-1)
[28] = target: HIV-1 Env of isolate MGRM-Chronic-B-010 (HIV-1)
[29] = target: HIV-1 Env of isolate MGRM-AE-008 (HIV-1)
[30] = target: HIV-1 Env of isolate MGRM-AG-005 (HIV-1)
[31] = target: HIV-1 Env of isolate MGRM-AG-002 (HIV-1)
[32] = target: HIV-1 Env of isolate MGRM-AE-006 (HIV-1)
[33] = target: HIV-1 Env of isolate MGRM-AG-013 (HIV-1)
[34] = target: HIV-1 Env of isolate MGRM-AG-011 (HIV-1)
[35] = target: HIV-1 Env of isolate MGRM-AG-003 (HIV-1)
[36] = target: HIV-1 Env of isolate MGRM-AE-004 (HIV-1)
[37] = target: HIV-1 Env of isolate MGRM-G-024 (clade G pseudovirus) (HIV-1)
[38] = target: HIV-1 Env of isolate MGRM-AE-007 (HIV-1)
[39] = target: HIV-1 MGRM-C-001 Env (HIV-1)
[40] = target: HIV-1 Env of isolate MGRM-AG-001 (HIV-1)
[41] = target: HIV-1 Env of isolate MGRM-AG-009 (HIV-1)
[42] = target: HIV-1 Env of isolate MGRM-AG-008 (HIV-1)
[43] = target: HIV-1 Env of isolate MGRM-AG-006 (HIV-1)
[44] = target: HIV-1 Env of isolate MGRM-AE-005 (HIV-1)
[45] = target: HIV-1 Env of isolate MGRM-AG-012 (HIV-1)

Sequence of 5329_C19 (PGT-136) (antibody) (VH): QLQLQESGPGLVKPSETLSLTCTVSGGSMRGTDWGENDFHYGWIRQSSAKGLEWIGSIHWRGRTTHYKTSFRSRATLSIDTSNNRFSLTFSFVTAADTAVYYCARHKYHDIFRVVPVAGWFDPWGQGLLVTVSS
Sequence of 5329_C19 (PGT-136) (antibody) (VL): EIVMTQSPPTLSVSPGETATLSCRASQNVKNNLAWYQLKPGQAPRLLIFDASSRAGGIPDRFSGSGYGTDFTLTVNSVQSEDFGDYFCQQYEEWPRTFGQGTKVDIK

5147_N06 (PGT-130) (antibody)
IC50 [1]: > 50 µg/mL
IC50, pseudovirus neutralization [2]: 4.14 µg/mL
IC50 [3]: > 50 µg/mL
IC50, pseudovirus neutralization [4]: > 50 µg/mL
IC50 (ug/ml), neutralizing activity [5]: 0.0082 µg/mL
IC50, pseudovirus neutralization [6]: > 50 µg/mL
IC50 (ug/ml), neutralizing activity [7]: > 10 µg/mL
IC50, pseudovirus neutralization [8]: 27.9 µg/mL
IC50 (ug/ml), neutralizing activity [9]: > 10 µg/mL
IC50, pseudovirus neutralization [10]: > 50 µg/mL
IC50 [11]: 0.373 µg/mL
IC50, pseudovirus neutralization [12]: > 50 µg/mL
IC50, pseudovirus neutralization [13]: 0.0198 µg/mL
IC50 [14]: 5.78 µg/mL
IC50 [15]: 0.014 µg/mL
IC50 [16]: 0.153 µg/mL
IC50, pseudovirus neutralization [17]: > 50 µg/mL
IC50, pseudovirus neutralization [18]: > 50 µg/mL
IC50, pseudovirus neutralization [19]: > 50 µg/mL
IC50, pseudovirus neutralization [20]: > 50 µg/mL
IC50 [21]: 31.9 µg/mL
IC50, pseudovirus neutralization [22]: > 50 µg/mL
IC50, pseudovirus neutralization [23]: > 50 µg/mL
IC50 (ug/ml), neutralizing activity [24]: 1.12 µg/mL
IC50, pseudovirus neutralization [25]: 2.23 µg/mL
IC50 (ug/ml), neutralizing activity [26]: 0.014 µg/mL
IC50 [27]: 0.046 µg/mL
IC50 [28]: 0.006 µg/mL

1495_C14 (PGC14) (antibody)
IC50 (µg/ml), pseudovirus neutralization [1]: > 50 µg/mL
IC50 (µg/ml), pseudovirus neutralization [3]: > 50 µg/mL
IC50 (µg/ml), pseudovirus neutralization [29]: > 50 µg/mL
IC50 (µg/ml), pseudovirus neutralization [30]: > 50 µg/mL
IC50 (µg/ml), pseudovirus neutralization [31]: > 50 µg/mL
IC50 (µg/ml), pseudovirus neutralization [32]: > 50 µg/mL
IC50 (µg/ml), pseudovirus neutralization [6]: > 50 µg/mL
IC50 (µg/ml), pseudovirus neutralization [33]: > 50 µg/mL
IC50 (µg/ml), pseudovirus neutralization [34]: > 50 µg/mL
IC50 (µg/ml), pseudovirus neutralization [35]: > 50 µg/mL
IC50 (µg/ml), pseudovirus neutralization [36]: > 50 µg/mL
IC50 (µg/ml), pseudovirus neutralization [37]: > 50 µg/mL
IC50 (µg/ml), pseudovirus neutralization [38]: > 50 µg/mL
IC50 (µg/ml), pseudovirus neutralization [10]: > 50 µg/mL
IC50 (µg/ml), pseudovirus neutralization [11]: > 50 µg/mL
IC50 [39]: > 50 µg/mL
IC50 (µg/ml), pseudovirus neutralization [13]: > 50 µg/mL
IC50 (µg/ml), pseudovirus neutralization [14]: > 50 µg/mL
IC50 (µg/ml), pseudovirus neutralization [15]: > 50 µg/mL
IC50 (µg/ml), pseudovirus neutralization [40]: > 50 µg/mL
IC50 (µg/ml), pseudovirus neutralization [16]: > 50 µg/mL
IC50 (µg/ml), pseudovirus neutralization [19]: > 50 µg/mL
IC50 (µg/ml), pseudovirus neutralization [41]: > 50 µg/mL
IC50 (µg/ml), pseudovirus neutralization [20]: > 50 µg/mL
IC50 (µg/ml), pseudovirus neutralization [21]: > 50 µg/mL
IC50 (µg/ml), pseudovirus neutralization [42]: 45 µg/mL
IC50 (µg/ml), pseudovirus neutralization [43]: > 50 µg/mL
IC50 (µg/ml), pseudovirus neutralization [44]: > 50 µg/mL
IC50 (µg/ml), pseudovirus neutralization [45]: > 50 µg/mL
IC50 (µg/ml), pseudovirus neutralization [27]: > 50 µg/mL
IC50 (µg/ml), pseudovirus neutralization [28]: 27 µg/mL

5329_C19 (PGT-136) (antibody)
IC50 [1]: > 50 µg/mL
IC50, pseudovirus neutralization [2]: 45.2 µg/mL
IC50 [3]: > 50 µg/mL
IC50, pseudovirus neutralization [4]: > 50 µg/mL
IC50, pseudovirus neutralization [6]: > 50 µg/mL
IC50, pseudovirus neutralization [8]: 44.3 µg/mL
IC50, pseudovirus neutralization [10]: > 50 µg/mL
IC50 [11]: 43.1 µg/mL
IC50, pseudovirus neutralization [12]: > 50 µg/mL
IC50, pseudovirus neutralization [13]: 8.11 µg/mL
IC50 [14]: > 50 µg/mL
IC50 [15]: > 50 µg/mL
IC50 [16]: > 50 µg/mL
IC50, pseudovirus neutralization [17]: > 50 µg/mL
IC50, pseudovirus neutralization [18]: > 50 µg/mL
IC50, pseudovirus neutralization [19]: > 50 µg/mL
IC50, pseudovirus neutralization [20]: > 50 µg/mL
IC50 [21]: > 50 µg/mL
IC50, pseudovirus neutralization [22]: > 50 µg/mL
IC50, pseudovirus neutralization [23]: > 50 µg/mL
IC50 (ug/ml), neutralizing activity [24]: > 10 µg/mL
IC50, pseudovirus neutralization [25]: > 50 µg/mL
IC50 (ug/ml), neutralizing activity [26]: 0.738 µg/mL
IC50 [27]: > 50 µg/mL
IC50 [28]: > 50 µg/mL
